From EP2060581A1 (Chemotherapeutisches Forschungsinstitut Georg-Speyer-Haus, dated 2009)

Target: T1, ErbB2 receptor (UniProt P04626 23-1255)
T1 construct: Whole endogenous receptor from cell extracts, immunoprecipitated with an ErbB2 antibody
Assay: co-immunoprecipitation from SK-BR3 membrane extracts with an ErbB2 antibody, Western blot with Flag antibody

B1: mt bTrx-All-7 (designed binder)
chain: MSDKIIHLTDDSFDTDVLKADGAILVDFWAEWSGPPLNFYRHGFLPNAVMASMLEVGPWFELLGPCGLAGHPLSSLRIGPSKMIAPILDEIADEYQGKLTVAKLNIDQNPGTAPKYGIRGIPTLLLFKNGEVAATKVGALSKGQLKEFLDANLA
notes: Purified recombinant protein; Largely monomeric; also called All-7 aptamer in mutated bTrx (mt); All-7 in the mutated scaffold; not shown: Flag-tag, one or two His-tags and a 9R protein transduction domain
fold increase in binding against wt bTrx-All-7: 2.4 fold
